Data published in patent US20170362293A1 (GENEXINE, published 2017).

Target: GLP-2R
Test: cell-based or functional assay

membrane depolarization induced by increased intracellular cAMP in GLP-2R-expressing 293 cells; activity relative to GLP-2-2G peptide set at 100%: 98%
B1: GLP-2-hyFc9 fusion polypeptide (Fc fusion)
chain: HGDGSFSDEMNTILDNLAARDFINWLIQTKITDAKATTAPATTRNTGRGGEEKKKEKEKEEQEERETKTPECPSHTQPLGVFLFPPKPKDTLMISRTPEVTCVVVDVSQEDPEVQFNWYVDGVEVHNAKTKPREEQFNSTYRVVSVLTVLHQDWLNGKEYKCKVSNKGLPSSIEKTISKAKGQPREPQVYTLPPSQEEMTKNQVSLTCLVKGFYPSDIAVEWESNGQPENNYKTTPPVLDSDGSFFLYSRLTVDKSRWQEGNVFSCSVMHEALHNHYTQKSLSLSLGK
